Assay results published in publication PMC9482650, “Quantitative fragmentomics allow affinity mapping of interactomes” (Nature Communications, 2022).

Key:
Experiment in all cases: holdup assay
Parameters in all cases: key: below the threshold = too weak to quantify, mostly under pKd 3.1 to 4
[1] = target: TJP1_2, Q07157
[2] = target: GRIP2_3, Q9C0E4
[3] = target: DLG2_2, Q15700
[4] = target: GORASP2, Q9H8Y8
[5] = target: DLG1_2, Q12959
[6] = target: T1, GRIP1_3, Q9Y3R0
T1 sequence (Q9Y3R0 247-346, limits assumed, looked up): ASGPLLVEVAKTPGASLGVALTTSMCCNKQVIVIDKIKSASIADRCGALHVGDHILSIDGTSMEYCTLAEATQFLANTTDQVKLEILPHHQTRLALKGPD

[7] = target: T2, DLG3_2, Q92796
T2 sequence (Q92796 221-321, limits assumed, looked up): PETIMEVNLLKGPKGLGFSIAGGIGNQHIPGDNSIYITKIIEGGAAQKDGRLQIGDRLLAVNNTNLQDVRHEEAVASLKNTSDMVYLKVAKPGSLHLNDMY

[8] = target: T3, LRRC7, Q96NW7
T3 sequence (Q96NW7 1440-1537, limits assumed, looked up): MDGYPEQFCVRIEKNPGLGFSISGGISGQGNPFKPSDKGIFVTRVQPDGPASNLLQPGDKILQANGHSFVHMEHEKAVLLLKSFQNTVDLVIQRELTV

[9] = target: Inadl_6, Q8NI35
[10] = target: T4, FRMPD1, Q5SYB0
T4 sequence (Q5SYB0 52-145, limits assumed, looked up): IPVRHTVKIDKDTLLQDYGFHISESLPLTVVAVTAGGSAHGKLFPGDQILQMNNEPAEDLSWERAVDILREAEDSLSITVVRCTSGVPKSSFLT

[11] = target: Inadl_5, Q8NI35
[12] = target: T5, GRIP1_7, Q9Y3R0
T5 sequence (Q9Y3R0 999-1096, limits assumed, looked up): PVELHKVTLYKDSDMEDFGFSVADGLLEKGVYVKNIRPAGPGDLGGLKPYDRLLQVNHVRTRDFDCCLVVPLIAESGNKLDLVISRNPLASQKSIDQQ

[13] = target: MAGI1_2, Q96QZ7
[14] = target: T6, MPDZ_5, O75970
T6 sequence (O75970 695-796, limits assumed, looked up): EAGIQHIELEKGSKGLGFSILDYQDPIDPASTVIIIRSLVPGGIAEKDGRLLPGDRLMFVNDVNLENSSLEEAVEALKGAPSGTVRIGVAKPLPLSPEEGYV

[15] = target: PARD3_3, Q8TEW0
[16] = target: GOPC, Q9HD26
[17] = target: DLG4_1, P78352
[18] = target: LAP2, Q96RT1
[19] = target: TJP1_3, Q07157
[20] = target: FRMPD3, Q5JV73
[21] = target: T7, PCLO, Q9Y6V0
T7 sequence (Q9Y6V0 4491-4600, limits assumed, looked up): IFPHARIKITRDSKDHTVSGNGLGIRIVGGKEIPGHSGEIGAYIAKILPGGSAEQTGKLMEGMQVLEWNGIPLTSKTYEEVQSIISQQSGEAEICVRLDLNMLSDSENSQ

[22] = target: TJP2_1, Q9UDY2
[23] = target: T8, MPP7, Q5T2T1
T8 sequence (Q5T2T1 134-230, limits assumed, looked up): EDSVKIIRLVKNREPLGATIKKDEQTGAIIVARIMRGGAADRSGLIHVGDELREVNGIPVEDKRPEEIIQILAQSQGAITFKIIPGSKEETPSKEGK

[24] = target: ARHGEF12, Q9NZN5-2
[25] = target: T9, RAPGEF6, Q8TEU7
T9 sequence (Q8TEU7 525-625, limits assumed, looked up): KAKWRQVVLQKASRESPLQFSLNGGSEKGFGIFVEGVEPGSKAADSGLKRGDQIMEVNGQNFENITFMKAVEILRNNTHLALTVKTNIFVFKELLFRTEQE

[26] = target: Inadl_4, Q8NI35
[27] = target: MAGI2_5, Q86UL8
[28] = target: Inadl_9, Q8NI35
[29] = plain residues with an end cap or a label only (N-terminal biotin on a linker: ttds)
[30] = plain residues with an end cap or a label only (N-terminal biotin on a linker: ado-ado)
[31] = plain residues with an end cap or a label only (N-terminal biotin on a linker: ahx)

FRMPD3, Q5JV73, sequence (Q5JV73 12-100): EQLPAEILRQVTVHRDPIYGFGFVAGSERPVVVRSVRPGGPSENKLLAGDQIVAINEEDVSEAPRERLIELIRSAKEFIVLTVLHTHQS
TJP1_2, Q07157, sequence (Q07157 181-274): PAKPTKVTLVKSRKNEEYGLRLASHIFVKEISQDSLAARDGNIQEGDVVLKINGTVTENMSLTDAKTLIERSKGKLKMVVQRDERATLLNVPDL
Inadl_6, Q8NI35, sequence (Q8NI35 1058-1167): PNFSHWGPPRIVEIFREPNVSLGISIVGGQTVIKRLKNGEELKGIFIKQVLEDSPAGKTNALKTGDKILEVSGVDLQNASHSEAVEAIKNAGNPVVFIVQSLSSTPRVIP
MAGI1_2, Q96QZ7, sequence (Q96QZ7 456-580): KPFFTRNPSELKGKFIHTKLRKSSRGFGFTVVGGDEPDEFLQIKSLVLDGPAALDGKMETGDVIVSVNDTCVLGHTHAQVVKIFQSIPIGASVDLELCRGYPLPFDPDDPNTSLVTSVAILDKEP
Inadl_5, Q8NI35, sequence (Q8NI35 673-780): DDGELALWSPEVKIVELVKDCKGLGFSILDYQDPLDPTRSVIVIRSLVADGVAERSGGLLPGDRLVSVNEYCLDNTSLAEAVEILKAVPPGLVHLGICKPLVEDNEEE
ARHGEF12, Q9NZN5-2, sequence (Q9NZN5 other isoform, or with tags, fused parts or gaps): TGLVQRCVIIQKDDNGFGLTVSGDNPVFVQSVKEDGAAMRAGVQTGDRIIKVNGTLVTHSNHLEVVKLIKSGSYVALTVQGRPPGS
Inadl_9, Q8NI35, sequence (Q8NI35 1530-1615): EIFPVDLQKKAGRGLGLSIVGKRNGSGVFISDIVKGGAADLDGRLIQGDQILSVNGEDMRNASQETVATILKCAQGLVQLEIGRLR
DLG2_2, Q15700, sequence (Q15700 189-283): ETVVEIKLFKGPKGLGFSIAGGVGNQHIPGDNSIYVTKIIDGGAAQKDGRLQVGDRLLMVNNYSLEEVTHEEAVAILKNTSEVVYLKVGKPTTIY
LAP2, Q96RT1, sequence (Q96RT1 other isoform, or with tags, fused parts or gaps): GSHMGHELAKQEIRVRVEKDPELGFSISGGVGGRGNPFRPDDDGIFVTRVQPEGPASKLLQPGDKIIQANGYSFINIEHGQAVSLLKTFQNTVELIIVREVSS
Inadl_4, Q8NI35, sequence (Q8NI35 547-651): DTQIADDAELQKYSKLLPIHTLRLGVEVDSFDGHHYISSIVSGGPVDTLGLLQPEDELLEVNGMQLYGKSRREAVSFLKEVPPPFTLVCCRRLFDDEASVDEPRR
MAGI2_5, Q86UL8, sequence (Q86UL8 915-1017): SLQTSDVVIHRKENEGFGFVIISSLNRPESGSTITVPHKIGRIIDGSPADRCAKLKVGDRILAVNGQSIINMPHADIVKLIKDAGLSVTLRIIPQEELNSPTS
GRIP2_3, Q9C0E4, sequence (Q9C0E4 238-339): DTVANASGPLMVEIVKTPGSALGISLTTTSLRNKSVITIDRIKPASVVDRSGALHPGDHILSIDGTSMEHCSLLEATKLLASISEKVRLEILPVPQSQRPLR
DLG1_2, Q12959, sequence (Q12959 314-412): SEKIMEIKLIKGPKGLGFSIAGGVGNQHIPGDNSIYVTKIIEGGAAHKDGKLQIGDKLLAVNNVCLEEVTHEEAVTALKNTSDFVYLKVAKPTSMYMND
PARD3_3, Q8TEW0, sequence (Q8TEW0 582-685): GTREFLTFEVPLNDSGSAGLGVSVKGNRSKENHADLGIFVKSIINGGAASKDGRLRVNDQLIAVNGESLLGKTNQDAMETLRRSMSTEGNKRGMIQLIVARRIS
TJP1_3, Q07157, sequence (Q07157 416-512): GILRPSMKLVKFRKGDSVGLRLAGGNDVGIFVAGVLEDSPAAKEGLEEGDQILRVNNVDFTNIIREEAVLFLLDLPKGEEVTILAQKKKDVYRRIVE
TJP2_1, Q9UDY2, sequence (Q9UDY2 24-128): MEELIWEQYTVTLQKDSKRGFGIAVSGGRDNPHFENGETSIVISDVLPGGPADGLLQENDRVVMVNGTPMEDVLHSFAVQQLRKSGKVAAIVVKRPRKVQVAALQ
DLG4_1, P78352, sequence (P78352 62-152): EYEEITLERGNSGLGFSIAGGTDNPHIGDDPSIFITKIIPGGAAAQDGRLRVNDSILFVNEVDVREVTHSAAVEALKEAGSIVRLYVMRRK

For PSRDRKETSI [RALBP1, Q15311], the pKd [1, 29] was “below the threshold”, the pKd [2, 29] was “below the threshold” and the pKd [3, 29] was 4.29. The pKd [4, 29] was “below the threshold”, the pKd [5, 29] was 4.7 and the pKd [6, 29] was “below the threshold”. The pKd [7, 29] was 4.35, the pKd [8, 29] was “below the threshold” and the pKd [9, 29] was “below the threshold”. The pKd [10, 29] was “below the threshold”, the pKd [11, 29] was “below the threshold” and the pKd [12, 29] was 3.49. The pKd [13, 29] was 3.91, the pKd [14, 29] was “below the threshold” and the pKd [15, 29] was “below the threshold”. It also gave a pKd [16, 29] of 3.6, a pKd [17, 29] of 3.97 and a pKd [18, 29] of 3.37. The pKd [19, 29] was “below the threshold”, the pKd [20, 29] was “below the threshold” and the pKd [21, 29] was “below the threshold”. For the same binder, the pKd [22, 29] was “below the threshold”, the pKd [23, 29] was “below the threshold” and the pKd [24, 29] was 4.06. For the same binder, the pKd [25, 29] was “below the threshold”, the pKd [26, 29] was “below the threshold” and the pKd [27, 29] was “below the threshold”. The pKd [28, 29] was “below the threshold”.

DAAHHDESNC [FMNL3, Q8IVF7] was tested, and the pKd [1, 30] was “below the threshold”, the pKd [2, 30] was “below the threshold” and the pKd [3, 30] was “below the threshold”. The pKd [4, 30] was “below the threshold”, the pKd [5, 30] was “below the threshold” and the pKd [6, 30] was “below the threshold”. For the same binder, the pKd [7, 30] was 4.09, the pKd [8, 30] was “below the threshold” and the pKd [9, 30] was “below the threshold”. For the same binder, the pKd [10, 30] was “below the threshold”, the pKd [11, 30] was “below the threshold” and the pKd [12, 30] was “below the threshold”. For the same binder, the pKd [13, 30] was “below the threshold”, the pKd [14, 30] was “below the threshold” and the pKd [15, 30] was “below the threshold”. The pKd [16, 30] was “below the threshold”, the pKd [17, 30] was “below the threshold” and the pKd [18, 30] was “below the threshold”. For the same binder, the pKd [19, 30] was “below the threshold”, the pKd [20, 30] was “below the threshold” and the pKd [21, 30] was “below the threshold”. The pKd [22, 30] was “below the threshold”, the pKd [23, 30] was “below the threshold” and the pKd [24, 30] was “below the threshold”. The pKd [25, 30] was “below the threshold”, the pKd [26, 30] was “below the threshold” and the pKd [27, 30] was “below the threshold”. The pKd [28, 30] was “below the threshold”.

For EKPIDSETKM [SLC1A3, P43003], the pKd [1, 30] was “below the threshold”, the pKd [2, 30] was “below the threshold” and the pKd [3, 30] was “below the threshold”. For the same binder, the pKd [4, 30] was “below the threshold”, the pKd [5, 30] was “below the threshold” and the pKd [6, 30] was “below the threshold”. The pKd [7, 30] was “below the threshold”, the pKd [8, 30] was “below the threshold” and the pKd [9, 30] was “below the threshold”. For the same binder, the pKd [10, 30] was “below the threshold”, the pKd [11, 30] was “below the threshold” and the pKd [12, 30] was “below the threshold”. For the same binder, the pKd [13, 30] was “below the threshold”, the pKd [14, 30] was “below the threshold” and the pKd [15, 30] was “below the threshold”. The pKd [16, 30] was “below the threshold”, the pKd [17, 30] was 3.49 and the pKd [18, 30] was “below the threshold”. For the same binder, the pKd [19, 30] was “below the threshold”, the pKd [20, 30] was “below the threshold” and the pKd [21, 30] was “below the threshold”. For the same binder, the pKd [22, 30] was “below the threshold”, the pKd [23, 30] was “below the threshold” and the pKd [24, 30] was “below the threshold”. For the same binder, the pKd [25, 30] was “below the threshold”, the pKd [26, 30] was “below the threshold” and the pKd [27, 30] was “below the threshold”. For the same binder, the pKd [28, 30] was “below the threshold”.

For VNENQKEYFF [CNTNAP4, Q9C0A0], the pKd [1, 31] was “below the threshold”, the pKd [2, 31] was “below the threshold” and the pKd [3, 31] was “below the threshold”. The pKd [4, 31] was “below the threshold”, the pKd [5, 31] was “below the threshold” and the pKd [6, 31] was “below the threshold”. The pKd [7, 31] was “below the threshold”, the pKd [8, 31] was “below the threshold” and the pKd [9, 31] was 3.86. For the same binder, the pKd [10, 31] was “below the threshold”, the pKd [11, 31] was 3.61 and the pKd [12, 31] was 4.14. The pKd [13, 31] was “below the threshold”, the pKd [14, 31] was 4.22 and the pKd [15, 31] was 5.32. For the same binder, the pKd [16, 31] was “below the threshold”, the pKd [17, 31] was “below the threshold” and the pKd [18, 31] was “below the threshold”. For the same binder, the pKd [19, 31] was “below the threshold”, the pKd [20, 31] was 4.66 and the pKd [21, 31] was “below the threshold”. The pKd [22, 31] was “below the threshold”, the pKd [23, 31] was 5.02 and the pKd [24, 31] was “below the threshold”. For the same binder, the pKd [25, 31] was “below the threshold”, the pKd [26, 31] was “below the threshold” and the pKd [27, 31] was 3.54. The pKd [28, 31] was “below the threshold”.
